Measurements reported in the Human Domainome abundance scans (Beltran et al. 2025).
± gives the uncertainty stated by the source.

B1: Serine/threonine-protein kinase A-Raf, residues 21 to 89; numbered along this chain, P10398 (parent)
chain: VKVYLPNKQRTVVTVRDGMSVYDSLDKALKVRGLNQDCCVVYRLIKGRKTVTAWDTAIAPLDGEELIVE

Variants of: B1
Assay: abundance fitness (aPCA) (normalised: wild type 0, dead -1); higher = more abundant; growth selection in yeast, the domain comes from the species named
Conditions: Homo sapiens
VKVYLPNKQRTVVTVRDGMSVYDSLDKALKVRGLNQDCCVVYRLIKGRKTVTAWDTAIYPLDGEELIVE [A59Y] gave an abundance fitness of 0.01 ± 0.44.
VKVYLPNKQRTVVTVRDGMSVYDSLDKALKVRGLNQDCCVVYRLIKGRKTVTAWDTAISPLDGEELIVE [A59S] showed an abundance fitness of 0.002 ± 0.027.
VKVYLPNKQRTVVTVRDGMSVYDSLDKALKVRGLNQDCCVVYRLIKGRKTVTAWDTAIKPLDGEELIVE [A59K] gave an abundance fitness of -0.076 ± 0.067.
VKVYLPNKQRTVVTVRDGMSVYDSLDKALKVRGLNQDCCVVYRLIKGRKTVTAWDTAIQPLDGEELIVE [A59Q] showed an abundance fitness of -0.008 ± 0.086.
VKVYLPNKQRTVVTVRDGMSVYDSLDKALKVRGLNQDCCVVYRLIKGRKTVTAWDTAILPLDGEELIVE [A59L] showed an abundance fitness of -0.071 ± 0.049.
In the case of VKVYLPNKQRTVVTVRDGMSVYDSLDKALKVRGLNQDCCVVYRLIKGRKTVTAWDTAIVPLDGEELIVE [A59V], the abundance fitness is reported as -0.122 ± 0.041.
For VKVYLPNKQRTVVTVRDGMSVYDSLDKALKVRGLNQDCCVVYRLIKGRKTVTAWDTAIAELDGEELIVE [P60E], the abundance fitness was 0.064 ± 0.059.
Variant VKVYLPNKQRTVVTVRDGMSVYDSLDKALKVRGLNQDCCVVYRLIKGRKTVTAWDTAIALLDGEELIVE [P60L] has an abundance fitness of 0.001 ± 0.045.
VKVYLPNKQRTVVTVRDGMSVYDSLDKALKVRGLNQDCCVVYRLIKGRKTVTAWDTAIAALDGEELIVE [P60A] showed an abundance fitness of 0.147 ± 0.066.
Variant VKVYLPNKQRTVVTVRDGMSVYDSLDKALKVRGLNQDCCVVYRLIKGRKTVTAWDTAIARLDGEELIVE [P60R] has an abundance fitness of -0.067 ± 0.048.
VKVYLPNKQRTVVTVRDGMSVYDSLDKALKVRGLNQDCCVVYRLIKGRKTVTAWDTAIAHLDGEELIVE [P60H] gave an abundance fitness of -0.06 ± 0.18.
Work on VKVYLPNKQRTVVTVRDGMSVYDSLDKALKVRGLNQDCCVVYRLIKGRKTVTAWDTAIAMLDGEELIVE [P60M] yielded an abundance fitness of 0.084 ± 0.068.
VKVYLPNKQRTVVTVRDGMSVYDSLDKALKVRGLNQDCCVVYRLIKGRKTVTAWDTAIAKLDGEELIVE [P60K] gave an abundance fitness of 0.024 ± 0.057.
For VKVYLPNKQRTVVTVRDGMSVYDSLDKALKVRGLNQDCCVVYRLIKGRKTVTAWDTAIACLDGEELIVE [P60C], the abundance fitness was -0.221 ± 0.2.
In the case of VKVYLPNKQRTVVTVRDGMSVYDSLDKALKVRGLNQDCCVVYRLIKGRKTVTAWDTAIAVLDGEELIVE [P60V], the abundance fitness is reported as -0.04 ± 0.051.
In the case of VKVYLPNKQRTVVTVRDGMSVYDSLDKALKVRGLNQDCCVVYRLIKGRKTVTAWDTAIAFLDGEELIVE [P60F], the abundance fitness is reported as -0.036 ± 0.13.
Work on VKVYLPNKQRTVVTVRDGMSVYDSLDKALKVRGLNQDCCVVYRLIKGRKTVTAWDTAIADLDGEELIVE [P60D] yielded an abundance fitness of 0.138 ± 0.12.
With VKVYLPNKQRTVVTVRDGMSVYDSLDKALKVRGLNQDCCVVYRLIKGRKTVTAWDTAIATLDGEELIVE [P60T] the abundance fitness was 0.027 ± 0.078.
Work on VKVYLPNKQRTVVTVRDGMSVYDSLDKALKVRGLNQDCCVVYRLIKGRKTVTAWDTAIAWLDGEELIVE [P60W] yielded an abundance fitness of -0.199 ± 0.075.
VKVYLPNKQRTVVTVRDGMSVYDSLDKALKVRGLNQDCCVVYRLIKGRKTVTAWDTAIASLDGEELIVE [P60S] showed an abundance fitness of 0.098 ± 0.08.
For VKVYLPNKQRTVVTVRDGMSVYDSLDKALKVRGLNQDCCVVYRLIKGRKTVTAWDTAIAQLDGEELIVE [P60Q], the abundance fitness was 0.121 ± 0.066.
VKVYLPNKQRTVVTVRDGMSVYDSLDKALKVRGLNQDCCVVYRLIKGRKTVTAWDTAIAYLDGEELIVE [P60Y] gave an abundance fitness of 0.043 ± 0.14.
Variant VKVYLPNKQRTVVTVRDGMSVYDSLDKALKVRGLNQDCCVVYRLIKGRKTVTAWDTAIAPIDGEELIVE [L61I] has an abundance fitness of -0.206 ± 0.28.
VKVYLPNKQRTVVTVRDGMSVYDSLDKALKVRGLNQDCCVVYRLIKGRKTVTAWDTAIAPRDGEELIVE [L61R] gave an abundance fitness of -0.108 ± 0.043.
With VKVYLPNKQRTVVTVRDGMSVYDSLDKALKVRGLNQDCCVVYRLIKGRKTVTAWDTAIAPGDGEELIVE [L61G] the abundance fitness was -0.176 ± 0.048.
VKVYLPNKQRTVVTVRDGMSVYDSLDKALKVRGLNQDCCVVYRLIKGRKTVTAWDTAIAPPDGEELIVE [L61P] gave an abundance fitness of -0.631 ± 0.38.
Work on VKVYLPNKQRTVVTVRDGMSVYDSLDKALKVRGLNQDCCVVYRLIKGRKTVTAWDTAIAPMDGEELIVE [L61M] yielded an abundance fitness of 0.017 ± 0.087.
For VKVYLPNKQRTVVTVRDGMSVYDSLDKALKVRGLNQDCCVVYRLIKGRKTVTAWDTAIAPDDGEELIVE [L61D], the abundance fitness was -0.365 ± 0.23.
Variant VKVYLPNKQRTVVTVRDGMSVYDSLDKALKVRGLNQDCCVVYRLIKGRKTVTAWDTAIAPHDGEELIVE [L61H] has an abundance fitness of -0.312 ± 0.13.
For VKVYLPNKQRTVVTVRDGMSVYDSLDKALKVRGLNQDCCVVYRLIKGRKTVTAWDTAIAPADGEELIVE [L61A], the abundance fitness was -0.168 ± 0.072.
Work on VKVYLPNKQRTVVTVRDGMSVYDSLDKALKVRGLNQDCCVVYRLIKGRKTVTAWDTAIAPWDGEELIVE [L61W] yielded an abundance fitness of -0.297 ± 0.078.
VKVYLPNKQRTVVTVRDGMSVYDSLDKALKVRGLNQDCCVVYRLIKGRKTVTAWDTAIAPNDGEELIVE [L61N] gave an abundance fitness of -0.371 ± 0.15.
With VKVYLPNKQRTVVTVRDGMSVYDSLDKALKVRGLNQDCCVVYRLIKGRKTVTAWDTAIAPSDGEELIVE [L61S] the abundance fitness was -0.156 ± 0.065.
VKVYLPNKQRTVVTVRDGMSVYDSLDKALKVRGLNQDCCVVYRLIKGRKTVTAWDTAIAPEDGEELIVE [L61E] gave an abundance fitness of -0.25 ± 0.087.
In the case of VKVYLPNKQRTVVTVRDGMSVYDSLDKALKVRGLNQDCCVVYRLIKGRKTVTAWDTAIAPVDGEELIVE [L61V], the abundance fitness is reported as -0.112 ± 0.057.
In the case of VKVYLPNKQRTVVTVRDGMSVYDSLDKALKVRGLNQDCCVVYRLIKGRKTVTAWDTAIAPKDGEELIVE [L61K], the abundance fitness is reported as -0.142 ± 0.066.
With VKVYLPNKQRTVVTVRDGMSVYDSLDKALKVRGLNQDCCVVYRLIKGRKTVTAWDTAIAPTDGEELIVE [L61T] the abundance fitness was -0.23 ± 0.097.
With VKVYLPNKQRTVVTVRDGMSVYDSLDKALKVRGLNQDCCVVYRLIKGRKTVTAWDTAIAPCDGEELIVE [L61C] the abundance fitness was -0.367 ± 0.31.
Work on VKVYLPNKQRTVVTVRDGMSVYDSLDKALKVRGLNQDCCVVYRLIKGRKTVTAWDTAIAPQDGEELIVE [L61Q] yielded an abundance fitness of -0.088 ± 0.089.
